Target: T1, angiotensin-converting-enzyme derived from pig kidney (pig) (UniProt F1RRW5)
T1 sequence (looked up): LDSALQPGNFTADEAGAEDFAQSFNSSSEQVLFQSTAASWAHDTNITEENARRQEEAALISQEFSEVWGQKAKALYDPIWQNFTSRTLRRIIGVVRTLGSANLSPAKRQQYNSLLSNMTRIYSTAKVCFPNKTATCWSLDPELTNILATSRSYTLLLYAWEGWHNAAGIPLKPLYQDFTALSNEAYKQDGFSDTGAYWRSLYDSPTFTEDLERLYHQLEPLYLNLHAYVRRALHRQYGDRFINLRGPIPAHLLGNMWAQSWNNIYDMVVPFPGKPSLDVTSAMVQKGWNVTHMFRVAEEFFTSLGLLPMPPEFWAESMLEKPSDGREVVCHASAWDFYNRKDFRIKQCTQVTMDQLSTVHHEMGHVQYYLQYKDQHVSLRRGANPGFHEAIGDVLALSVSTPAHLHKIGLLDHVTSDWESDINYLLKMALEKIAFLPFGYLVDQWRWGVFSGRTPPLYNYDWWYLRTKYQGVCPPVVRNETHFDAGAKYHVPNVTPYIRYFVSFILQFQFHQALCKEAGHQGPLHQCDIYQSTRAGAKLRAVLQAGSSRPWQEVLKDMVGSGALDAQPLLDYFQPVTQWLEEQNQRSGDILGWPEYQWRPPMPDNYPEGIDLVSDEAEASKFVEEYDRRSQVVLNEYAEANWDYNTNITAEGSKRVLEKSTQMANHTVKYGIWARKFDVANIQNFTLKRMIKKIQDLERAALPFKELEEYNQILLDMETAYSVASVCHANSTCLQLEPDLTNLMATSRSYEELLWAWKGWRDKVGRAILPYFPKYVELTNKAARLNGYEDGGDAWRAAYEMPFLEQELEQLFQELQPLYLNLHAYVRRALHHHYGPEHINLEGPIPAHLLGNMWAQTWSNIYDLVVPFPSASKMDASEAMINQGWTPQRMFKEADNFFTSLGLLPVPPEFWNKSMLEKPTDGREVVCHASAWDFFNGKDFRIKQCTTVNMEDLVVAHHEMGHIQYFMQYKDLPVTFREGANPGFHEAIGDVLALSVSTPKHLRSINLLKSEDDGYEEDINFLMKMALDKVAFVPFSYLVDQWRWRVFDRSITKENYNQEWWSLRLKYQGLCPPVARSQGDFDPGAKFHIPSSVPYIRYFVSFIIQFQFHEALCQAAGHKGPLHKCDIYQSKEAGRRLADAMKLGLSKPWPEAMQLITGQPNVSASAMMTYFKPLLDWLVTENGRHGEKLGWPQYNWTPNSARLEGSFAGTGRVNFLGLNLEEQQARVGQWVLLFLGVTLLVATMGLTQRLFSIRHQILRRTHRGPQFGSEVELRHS
Assay: cell-based or functional assay

Q: Peptid S547 (SPLPEVPP) (peptide) was tested. Which % inhibition at 0.39 µM, A did it give?
A: 10.2%

Q: What about the % inhibition at 0.39 µM, B of the same substance?
A: 6.82%

Q: What about the % inhibition at 0.39 µM, C of the same substance?
A: 6.02%

Q: What about the % inhibition at 0.39 µM, D of the same substance?
A: 0.575%

Q: What about the % inhibition at 0.78125 µM, A of the same substance?
A: 9.62%

Q: And the % inhibition at 0.78125 µM, B?
A: 10%

Q: And the % inhibition at 0.78125 µM, C?
A: 7.72%

Q: And the % inhibition at 0.78125 µM, D?
A: 10.8%

Q: What about the % inhibition at 1.5625 µM, A of the same substance?
A: 13.4%

Q: What about the % inhibition at 1.5625 µM, B of the same substance?
A: 14.9%

Q: What about the % inhibition at 1.5625 µM, C of the same substance?
A: 9.3%

Q: What about the % inhibition at 1.5625 µM, D of the same substance?
A: 12.9%

Q: What about the % inhibition at 3.125 µM, A of the same substance?
A: 21.8%

Q: What about the % inhibition at 3.125 µM, B of the same substance?
A: 18%

Q: And the % inhibition at 3.125 µM, C?
A: 16%

Q: And the % inhibition at 3.125 µM, D?
A: 11.6%

Q: What about the % inhibition at 6.25 µM, A of the same substance?
A: 31.4%

Q: And the % inhibition at 6.25 µM, B?
A: 29.2%

Q: What about the % inhibition at 6.25 µM, C of the same substance?
A: 28%

Q: What about the % inhibition at 6.25 µM, D of the same substance?
A: 25.7%

Q: What about the % inhibition at 12.5 µM, A of the same substance?
A: 36.6%

Q: And the % inhibition at 12.5 µM, B?
A: 36.5%

Q: And the % inhibition at 12.5 µM, C?
A: 35.3%

Q: What about the % inhibition at 12.5 µM, D of the same substance?
A: 34.5%

Q: And the % inhibition at 25 µM, A?
A: 52%

Q: And the % inhibition at 25 µM, B?
A: 46.2%

Q: And the % inhibition at 25 µM, C?
A: 49.3%

Q: And the % inhibition at 50 µM, A?
A: 67.1%

Q: And the % inhibition at 50 µM, B?
A: 65%

Q: And the % inhibition at 50 µM, C?
A: 63.6%

Q: What about the % inhibition at 50 µM, D of the same substance?
A: 56%

Q: What about the % inhibition at 100 µM, A of the same substance?
A: 79.8%

Q: What about the % inhibition at 100 µM, B of the same substance?
A: 78.4%

Q: What about the % inhibition at 100 µM, C of the same substance?
A: 78.4%

Q: What about the % inhibition at 100 µM, D of the same substance?
A: 78%

Q: And the % inhibition at 200 µM, A?
A: 89.6%

Q: What about the % inhibition at 200 µM, B of the same substance?
A: 89.4%

Q: What about the % inhibition at 200 µM, C of the same substance?
A: 88.5%

Q: And the % inhibition at 200 µM, D?
A: 88.6%

Q: What about the fluorescence at 0.39 µM, A of the same substance?
A: 934000

Q: And the fluorescence at 0.39 µM, B?
A: 969000

Q: What about the fluorescence at 0.39 µM, C of the same substance?
A: 977000

Q: What about the fluorescence at 0.39 µM, D of the same substance?
A: 1.03e+06

Q: What about the fluorescence at 0.78125 µM, A of the same substance?
A: 940000

Q: And the fluorescence at 0.78125 µM, B?
A: 935000

Q: What about the fluorescence at 0.78125 µM, C of the same substance?
A: 959000

Q: What about the fluorescence at 0.78125 µM, D of the same substance?
A: 928000

Q: What about the fluorescence at 1.5625 µM, A of the same substance?
A: 900000

Q: And the fluorescence at 1.5625 µM, B?
A: 885000

Q: What about the fluorescence at 1.5625 µM, C of the same substance?
A: 943000

Q: What about the fluorescence at 1.5625 µM, D of the same substance?
A: 906000

Q: What about the fluorescence at 3.125 µM, A of the same substance?
A: 814000

Q: And the fluorescence at 3.125 µM, B?
A: 853000

Q: And the fluorescence at 3.125 µM, C?
A: 874000

Q: What about the fluorescence at 3.125 µM, D of the same substance?
A: 919000

Q: What about the fluorescence at 6.25 µM, A of the same substance?
A: 715000

Q: And the fluorescence at 6.25 µM, B?
A: 737000

Q: What about the fluorescence at 6.25 µM, C of the same substance?
A: 750000

Q: What about the fluorescence at 6.25 µM, D of the same substance?
A: 773000

Q: And the fluorescence at 12.5 µM, A?
A: 661000

Q: What about the fluorescence at 12.5 µM, B of the same substance?
A: 662000

Q: And the fluorescence at 12.5 µM, C?
A: 674000

Q: What about the fluorescence at 12.5 µM, D of the same substance?
A: 683000

Q: What about the fluorescence at 25 µM, A of the same substance?
A: 502000

Q: What about the fluorescence at 25 µM, B of the same substance?
A: 562000

Q: And the fluorescence at 25 µM, C?
A: 530000

Q: And the fluorescence at 25 µM, D?
A: 560000

Q: And the fluorescence at 50 µM, A?
A: 346000

Q: What about the fluorescence at 50 µM, B of the same substance?
A: 367000

Q: And the fluorescence at 50 µM, C?
A: 382000

Q: And the fluorescence at 50 µM, D?
A: 460000

Q: What about the fluorescence at 100 µM, A of the same substance?
A: 214000

Q: What about the fluorescence at 100 µM, B of the same substance?
A: 229000

Q: What about the fluorescence at 100 µM, C of the same substance?
A: 229000

Q: And the fluorescence at 100 µM, D?
A: 233000

Q: And the fluorescence at 200 µM, A?
A: 113000

Q: What about the fluorescence at 200 µM, B of the same substance?
A: 116000

Q: And the fluorescence at 200 µM, C?
A: 125000

Q: And the fluorescence at 200 µM, D?
A: 124000

Source: US20030203373A1 (priority 2002, published 2003)
